# Data taken from patent US20180118841A1 (published 2018).
# T1: CTLA-4 (BMS, Orencia) (human)
# T1 chain: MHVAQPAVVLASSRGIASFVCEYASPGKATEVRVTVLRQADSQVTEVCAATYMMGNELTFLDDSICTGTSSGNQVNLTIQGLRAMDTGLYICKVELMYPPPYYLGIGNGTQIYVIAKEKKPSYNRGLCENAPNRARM
# Tests used:
# CTLA-4 (BMS, Orencia) = target: T1, CTLA-4 (BMS, Orencia); experiment: cell-based or functional assay
# [1] = target: T2, CD137 human/mouse chimera 1554 (human; mouse, UniProt P20334 96-159, limits assumed); experiment: FACS, 293-F transfectants; MFI/isotype, normalized to full-length CD137
# T2 construct: domain: 3B, 4A and 4B; On 293-F cells; Human ranges derived from the printed mouse range; also called 1411
# T2 sequence (P20334 other isoform, or with tags, fused parts or gaps mutant limits assumed): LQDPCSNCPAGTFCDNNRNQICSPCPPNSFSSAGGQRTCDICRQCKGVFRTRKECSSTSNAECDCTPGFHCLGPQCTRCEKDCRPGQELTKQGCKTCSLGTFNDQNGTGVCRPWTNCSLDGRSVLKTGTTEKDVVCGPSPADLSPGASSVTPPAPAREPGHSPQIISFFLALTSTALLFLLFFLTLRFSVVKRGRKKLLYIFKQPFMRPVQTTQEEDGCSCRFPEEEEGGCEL
# [2] = target: CD137 on primary human CD8+ T cells (human, UniProt Q07011 24-255); experiment: cell-based or functional assay
# CD137 on primary human CD8+ T cells, sequence (Q07011 24-255 limits assumed): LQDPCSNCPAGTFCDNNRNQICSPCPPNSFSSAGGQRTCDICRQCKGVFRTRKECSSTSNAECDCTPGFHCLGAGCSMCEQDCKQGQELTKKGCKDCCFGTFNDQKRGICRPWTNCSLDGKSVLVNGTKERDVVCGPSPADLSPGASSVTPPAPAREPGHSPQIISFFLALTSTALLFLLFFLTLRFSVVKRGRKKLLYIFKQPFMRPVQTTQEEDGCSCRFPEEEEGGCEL
Binder,"Mean IL-2 level (pg/ml) induced at 1.5 nM (CTLA-4 (BMS, Orencia))",relative binding [1],"Mean IFN-γ (pg/ml), CD8+ T cell assay [2]"
"bispecific OX40/CTLA-4 molecule 1526/1585 (bispecific antibody, human IgG1, kappa) heavy: not shown light: DIQMTQSPSSLSASVGDRVTITCRASQSISSYLNWYQQKPGKAPKLLIYAASSLQSGVPSRFSGSGSGTDFTLTISSLQPEDFATYYCQQYGSDSLLTFGQGTKLEIKRTVAAPSVFIFPPSDEQLKSGTASVVCLLNNFYPREAKVQWKVDNALQSGNSQESVTEQDSKDSTYSLSSTLTLSKADYEKHKVYACEVTHQGLSSPVTKSFNRGECSGGGGSGGGGSAPLKIQAYFNETADLPCQFANSQNLSLSELVVFWQDQENLVLNEVYLGKERFDSVDSKYMGRTSFDSDSWTLRLHNLQIKDKGRYQCIIHHKKPTGMINIHQMNSELSVLA",3200 pg/mL,–,–
"anti-CD137 antibody 1204/1205 (antibody, IgG1, V domains shown, Produced as IgG; IgG1 format stated for the T cell assay) VH: EVQLLESGGGLVQPGGSLRLSCAASGFTFSSYYMGWVRQAPGKGLEWVSGIGSYYGYTGYADSVKGRFTISRDNSKNTLYLQMNSLRAEDTAVYYCARAYYDYNYYYAYFDYWGQGTLVTVSS VL: DIQMTQSPSSLSASVGDRVTITCRASQSISSYLNWYQQKPGKAPKLLIYAASSLQSGVPSRFSGSGSGTDFTLTISSLQPEDFATYYCQQSVPHYPFTFGQGTKLEIK",–,0.73,64400 pg/mL
